Entries after “also recorded” stand apart in the source; their conditions may differ. Where two headings read alike, the source gives them in different places.
Columns and labels:
[1] = Yeast surface display flow cytometry binding assay, DIG-RNase-biotin and SAPE; conditions: for compensated mean binding (PE) signal on yeast: 2.7 μM DIG-RNase-biotin pre-incubated with SAPE
Excerpt: (§1) DIG10.1a-derived library DNA was sequenced in paired-end mode on an Illumina MiSeq.
(§2) General experimental methods. Detailed procedures for the syntheses of DIG-BSA-biotin, DIG-RNase-biotin, DIG-PEG3-biotin, and DIG-PEG3-Alexa488, as well as protein expression, purification, and crystallization, cloning, and mutagenesis methods are given in Supplementary Methods. Details about fluorescence polarization binding assays, gel filtration analysis, and protein stability measurements are also provided in Supplementary Methods. Yeast surface display. Designed proteins were tested for binding using yeast-surface display^40. […] DIG binding was assessed by quantifying the phycoerythrin (PE) fluorescence of the displaying yeast population following incubation with DIG-BSA-biotin, DIG-RNase-biotin, or DIG-PEG3-biotin, and streptavidin-phycoerythrin (SAPE). In a typical experiment using DIG-BSA-biotin or DIG-RNase-biotin, cells were resuspended in a premixed solution of PBSF (PBS+1 g/L of BSA) containing a 1:100 dilution of anti-cmyc FITC, […] DIG-BSA-biotin or DIG-RNase biotin, and 664 nM SAPE for 2-4 hr incubation at 4° C. Cellular fluorescence was monitored on an Accuri C6 flow cytometer using a 488 nm laser for excitation and a 575 nm band pass filter for emission. Phycoerythrin fluorescence was compensated to minimize bleed-over contributions from the FITC channel. Competition assays with free digoxigenin were performed as above except that between 750 μM and 1.5 mM of digoxigenin was added to each labeling reaction mixture. Full details are given in Supplementary Methods.
(§3) Yeast surface display assays. Designed proteins were tested for binding using yeast-surface display^23. Designs DIG1-17/pET29FLAG, DigA16/pET29FLAG, and 3hk4/pET29FLAG were subcloned into the NdeI/XhoI cloning sites of pETCON^24. Designs and control proteins in pETCON were transformed into EBY100 cells using lithium acetate and polyethylene glycol^25 with dH2O instead of single stranded carrier DNA and were plated on selective media (C -ura -trp). Freshly transformed cells were inoculated into 1 mL of SDCAA media^23 and grown at 30° C., 200 rpm. After ˜12 hrs, 1e7 cells were collected by centrifugation at 1,700×g for 3 min and resuspended in 1 mL of SGCAA media to induce protein expression. Following induction for 24-48 hrs at 18° C., 4e6 cells were collected by centrifugation, and washed twice by incubation with PBSF (PBS supplemented with […]) for 10 min at room temperature
(§4) DIG binding was assessed by quantifying the phycoerythrin (PE) fluorescence of the displaying yeast population following incubation with DIG-BSA-biotin, DIG-RNase-biotin, or DIG-PEG3-biotin, and streptavidin-phycoerythrin (SAPE; Invitrogen, Carlsbad, Calif.). In a typical experiment using DIG-BSA-biotin or DIG-RNase-biotin. 4e6 cells were resuspended in 50 μL of a premixed solution of PBSF containing a 1:100 dilution of anti-cmyc FITC, 2.66 μM DIG-BSA-biotin or DIG-RNase biotin, and 664 nM SAPE. Following a 2-4 hr incubation at 4° C. in the dark on a rotator, cells were collected by centrifugation at 1,700×g for 3 min and washed with 200 μL of PBSF at 4° C. Cell pellets were resuspended in 200 μL of ice-cold PBSF immediately before use. Cellular fluorescence was monitored on an Accuri C6 flow cytometer using a 488 nm laser for excitation and a 575 nm band pass filter for emission. Phycoerythrin fluorescence was compensated to minimize bleed-over contributions from the FITC fluorescence channel. […]

[2] = Yeast surface display flow cytometry binding assay, DIG-BSA-biotin and SAPE; conditions: for compensated mean binding (PE) signal on yeast: 2.7 μM DIG-BSA-biotin pre-incubated with SAPE; for binding in presence of unlabeled DIG competitor: DIG-BSA or DIG-RNase label, ˜1 mM unlabeled DIG
Excerpt: as §1, §2, §3, §4

[3] = Fluorescence polarization equilibrium binding assay with purified protein; conditions: for affinity for DIG-PEG3-Alexa488 by fluorescence polarization (in words): purified protein in solution
Experimental: Proteins were expressed in E. coli Rosetta 2 (DE3) cells with a C-terminal TEV protease cleavable His6 tag for biochemical assays. For crystallographic analysis of DIG10 variants, a 12-amino acid structurally disordered C-terminus deriving from the scaffold protein 1z1s was replaced directly with a His6 tag. Binding affinities were determined by equilibrium fluorescence polarization^30 on a SpectraMax M5e microplate reader by monitoring the anisotropy of DIG-conjugated Alexa488 as a function of protein concentration. Equilibrium fluorescence polarization competition assays were performed by examining the effect of increasing concentrations of unlabeled DIG, digitoxigenin, progesterone, and β-estradiol on the anisotropy of designed protein-DIG-conjugated Alexa488 complex.
Fluorescence polarization binding assays. Fluorescence polarization-based affinity measurements of designs and their evolved variants were performed as described^46 using Alexa488-conjugated DIG (DIG-PEG3-Alexa488). Fluorescence anisotropy (r) was measured in 96-well plate format on a SpectraMax M5e microplate reader (Molecular Devices) with λex=485 nM and λem=538 nM using a 515 nm emission cutoff filter. Fluorescence polarization equilibrium competition binding assays were used to determine the binding affinities of DIG10.3 and its variants for unlabeled digoxigenin, digitoxigenin, progesterone, β-estradiol, and digoxin. The inhibition constant for each protein-ligand interaction, Ki, was calculated from the measured total unlabeled ligand producing 50% binding signal inhibition (I50) and the Kd of the protein-label interaction according to a model accounting for receptor-depletion conditions^46.
Fluorescence polarization equilibrium binding assays. Fluorescence polarization-based affinity measurements of designs and their evolved variants were performed as noted previously^47 using Alexa488-conjugated DIG (DIG-PEG3-Alexa488). In a typical experiment, the concentration of DIG-PEG3-Alexa488 was fixed below the Kd of the interaction being monitored and the effect of increasing concentrations of protein on the fluorescence anisotropy of Alexa488 was determined. Fluorescence anisotropy (r) was measured in 96-well plate format on a SpectraMax M5e microplate reader (Molecular Devices) with λex=485 nM and λem=538 nM using a 515 nm emission cutoff filter. In all experiments, PBS (pH 7.4) was used as the buffer system and the temperature was 25° C. DIG-PEG3-Alexa488 solutions were prepared from a 1 mM stock in DMSO. Equilibrium dissociation constants (Kd) were determined by fitting plots of the anisotropy averaged over a period of 20 to 40 min after reaction initiation versus protein concentration as described previously^47. […]

[4] = Circular dichroism spectroscopy, temperature melting; assay type: physicochemical
Experimental: Circular dichroism spectroscopy. Circular dichroism spectra were collected on an Aviv 62A DS spectrometer. Samples were prepared in PBS. Fixed-temperature scans were conducted at 25° C. All proteins were stable <°60 C.

| Molecule | compensated mean binding (PE) signal on yeast [1] | binding (PE) signal in presence of unlabeled DIG competitor ([1]; 2.7 μM DIG-RNase-biotin, 790 μM unlabeled DIG) | compensated mean binding (PE) signal on yeast [2] | binding in presence of unlabeled DIG competitor [2] | affinity for DIG-PEG3-Alexa488 by fluorescence polarization (in words) [3] | thermal stability by CD temperature melting [4] | thermal stability by CD temperature melting ([4]; PBS) | binding (PE) signal, stringent multistep labeling ([1]; 5 pM DIG-RNase, then SAPE) | increase of binding affinity relative to DIG10 ([3]; after one round of mutagenesis and selections) |
| --- | --- | --- | --- | --- | --- | --- | --- | --- | --- |
| DIG5: computationally designed digoxigenin binding polypeptide from scaffold 1z1s, SEQ ID NO: 10 (protein, (130)..(141) amino acids are optionally absent) MNAKEILVHSLRLLENGDARGWCDLFHPEGVLEFPYAPPGWKTRFEGRETIWAHMRLHPEHVTVRFTDVQFYETADPDLAIGEYHGDGVVTVSGGKYAADFITVLRTRDGQILLYRVFWNPLRALEAAGGVEAAAKIVQGA | strong binding signals | reduced to that of the negative control ZZ(−) | slightly above background levels | reduced to background levels | low to mid micromolar range |  |  |  |  |
| DIG10: computationally designed digoxigenin binding polypeptide from scaffold 1z1s, SEQ ID NO: 12 (protein, (130)..(141) amino acids are optionally absent) MNAKEIVVHSLRLLENGDARGWCDLFHPEGVLEYPYAPPGHKTRFEGRETIWAHMRLFPEYVTVRFTDVQFYETADPDLAIGEFHGDGVHTVSGGKLAADYISVLRTRDGQILLYRVFFNPLRVLEALGGVEAAAKIVQGA | strong binding signals |  | strong binding signals | reduced to background levels | low to mid micromolar range |  |  |  |  |
| DIG10.2: DIG10.1a variant with A37P and H41Y, SEQ ID NO: 14 (protein, (130)..(141) amino acids are optionally absent) MNAKEIVVHALRLLENGDARGWCDLFHPEGVLEYPYPPPGYKTRFEGRETIWAHMRLFPEYMTIRFTDVQFYETADPDLAIGEFHGDGVHTVSGGKLAADYISVLRTRDGQILLYRLFFNPLRVLEPLGGVEAAAKIVQGA |  |  |  |  |  | stable at temperatures below 60 °C |  |  |  |
| 1z1s: scaffold, hypothetical protein of unknown function from Pseudomonas aeruginosa, SEQ ID NO: 24 (protein) MNAKEILVHSLRLLENGDARGWCDLFHPEGVLEFPYAPPGWKTRFEGRETIWAHMRLFPEHLTVRFTDVQFYETADPDLAIGEFHGDGVATVSGGKLAQDYISVLRTRDGQILLYRDFWNPLRHLEALGGVEAAAKIVQGA | does not show a binding signal |  | does not bind to either label |  | does not bind |  | stable at temperatures below 60 °C |  |  |
| DIG10.1a: affinity matured DIG10 variant with S10A, V62M, V64I, V117L, A127P; SEQ ID NO: 13 (protein, (130)..(141) amino acids are optionally absent) MNAKEIVVHALRLLENGDARGWCDLFHPEGVLEYPYAPPGHKTRFEGRETIWAHMRLFPEYMTIRFTDVQFYETADPDLAIGEFHGDGVHTVSGGKLAADYISVLRTRDGQILLYRLFFNPLRVLEPLGGVEAAAKIVQGA |  |  |  |  |  | stable at temperatures below 60 °C |  | slightly higher signal; also recorded: strong binding signals | 75 fold |

Source: patent publication US9840539B2, “High affinity digoxigenin binding proteins” (UNIVERSITY OF WASHINGTON THROUGH ITS CENTER FOR …, priority 2013, dated 2017)
